From publication PMC6588657 (2018) come the findings set out here.

First the molecules themselves.
B1: full-length, C-terminal, Flag-tagged human Lnp [human] / Myc-ATL3 [human] (parent complex)
chain 1: MGGLFSRWRTKPSTVEVLESIDKEIQALEEFREKNQRLQKLWVGRLILYSSVLYLFTCLIVYLWYLPDEFTARLAMTLPFFAFPLIIWSIRTVIIFFFSKRTERNNEALDDLKSQRKKILEEVMEKETYKTAKLILERFDPDSKKAKECEPPSAGAAVTARPGQEIRQRTAAQRNLSPTPASPNQGPPPQVPVSPGPPKDSSAPGGPPERTVTPALSSNVLPRHLGSPATSVPGMGLHPPGPPLARPILPRERGALDRIVEYLVGDGPQNRYALICQQCFSHNGMALKEEFEYIAFRCAYCFFLNPARKTRPQAPRLPEFSFEKRQVVEGSSSVGPLPSGSVLSSDNQFNEESLEHDVLDDNTEQTDDKIPATEQTNQVIEKASDSEEPEEKQETENEEASVIETNSTVPGADSIPDPELSGESLTAE
chain 2: MLSPQRVAAAASRGADDAMESSKPGPVQVVLVQKDQHSFELDEKALASILLQDHIRDLDVVVVSVAGAFRKGKSFILDFMLRYLYSQKESGHSNWLGDPEEPLTGFSWRGGSDPETTGIQIWSEVFTVEKPGGKKVAVVLMDTQGAFDSQSTVKDCATIFALSTMTSSVQIYNLSQNIQEDDLQQLQLFTEYGRLAMDEIFQKPFQTLMFLVRDWSFPYEYSYGLQGGMAFLDKRLQVKEHQHEEIQNVRNHIHSCFSDVTCFLLPHPGLQVATSPDFDGKLKDIAGEFKEQLQALIPYVLNPSKLMEKEINGSKVTCRGLLEYFKAYIKIYQGEDLPHPKSMLQATAEANNLAAAASAKDIYYNNMEEVCGGEKPYLSPDILEEKHCEFKQLALDHFKKTKKMGGKDFSFRYQQELEEEIKELYENFCKHNGSKNVFSTFRTPAVLFTGIVALYIASGLTGFIGLEVVAQLFNCMVGLLLIALLTWGYIRYSGQYRELGGAIDFGAAYVLEQASSHIGNSTQATVRDAVVGRPSMDKKAQ

Variants of B1 are the subject of this assay. Briefly: co-immunoprecipitation; COS-7 cell lysates containing 1% Triton X-100; anti-Flag antibody-conjugated agarose; band quantification by Image J; parent: 1.
chain 1 I25D: the ratio to parent came to 0.32.

As for chain 1 I25D, chain 1 L28D, the ratio to parent stood at 0.26.

On to chain 1 L28D, for which the ratio to parent amounted to 0.34.
